# Source: publication PMC13189624, “MORC2 mediates transcriptional regulation through liquid-liquid phase separation” (eLife, 2026)
# B1: wild-type MORC2 901-1032 with Trx-tag [human] / itself (parent)
# chain: LSTNHETIDLLVQILRNCLRYFLPPSFPISKKQLSAMNSDELISFPLKEYFKQYEVGLQNLCNSYQSRADSRAKASEESLRTSERKLRETEEKLQKLRTNIVALLQKVQEDIDINTDDELDAYIEDLITKGD
# Variants of: B1
# Assay: static light-scattering (SLS) coupled to size-exclusion chromatography
# Conditions: with itself; Trx tag (14 kDa) kept on constructs
row,Variant,molecular mass [kDa]
1,LSTNHETIDLLVQILRNCLRYQLPPSFPISKKQLSAMNSDELISFPLKEYFKQYEVGLQNLCNSYQSRADSRAKASEESLRTSERKLRETEEKLQKLRTNIVALLQKVQEDIDINTDDELDAYIEDLITKGD [chain 1 F22Q],113
2,LSTNHETIDLQVQILRNCLRYFLPPSFPISKKQLSAMNSDELISFPLKEYFKQYEVGLQNLCNSYQSRADSRAKASEESLRTSERKLRETEEKLQKLRTNIVALLQKVQEDIDINTDDELDAYIEDLITKGD [chain 1 L11Q],79.8
